Our source for the stoichiometry N values is paper PMC8185552.

For this test, the target named is murine tenascin-C (murine) (UniProt Q80YX1). Briefly: negative staining transmission electron microscopy; murine TNC with CXCL12 labeled with colloidal gold; gold particles counted along the length of the TNC monomer, 500 TNC molecules.

The stoichiometry N is a count of units in the complex or per binding partner. Consider murine tenascin-C, Q80YX1 23-2110, for which the stoichiometry N stood at 6.
